Biological target: the molecule itself
Assay: SEC

B1: truncated form of human PAH including the catalytic domain, hPAH(Gly103-Gln428) (domain or fragment)
chain: GATVHELSRDKKKDTVPWFPRTIQELDRFANQILSYGAELDADHPGFKDPVYRARRKQFADIAYNYRHGQPIPRVEYMEEEKKTWGTVFKTLKSLYKTHACYEYNHIFPLLEKYCGFHEDNIPQLEDVSQFLQTCTGFRLRPVAGLLSSRDFLGGLAFRVFHCTQYIRHGSKPMYTPEPDICHELLGHVPLFSDRSFAQFSQEIGLASLGAPDEYIEKLATIYWFTVEFGLCKQGDSIKAYGAGLLSSFGELQYCLSEKPKLLPLELEKTAIQNYTVTEFQPLYYVAESFNDAKEKVRNFAATIPRPFSVRYDPYTQRIEVLDNTQ
stoichiometry N: 2
